Reference: FireProtDB (doi:10.1093/protein/12.10.841)
Where “and” joins values, the source holds several entries; their conditions need not be identical. Equal values may be shown once.

B1: Lysozyme C, P61626 (parent)
chain: MKALIVLGLVLLSVTVQGKVFERCELARTLKRLGMDGYRGISLANWMCLAKWESGYNTRATNYNAGDRSTDYGIFQINSRYWCNDGKTPGAVNACHLSCSALLQDNIADAVACAKRVVRDPQGIRAWVAWRNRCQNRDVRQYVQGCGV

Variants of: B1
Settings: Homo sapiens; pH 2.65; Thermal; DSC; glycine 0.05 M; reversible: yes; structure 1LZ1; whole UniProt chain shown

| Variant | Tm | heat capacity change of unfolding | unfolding enthalpy (calorimetric) | unfolding enthalpy (van 't Hoff) |
| --- | --- | --- | --- | --- |
| MKALIVLGLVLLSVTVQGKVFERCELARTLKRLGMDGYRGISLANWMCLAKWESGYNTRATNYNAGDRSTDYGIFQMNSRYWCNDGKTPGAVNACHLSCSALLQDNIADAVACAKRVVRDPQGIRAWVAWRNRCQNRDVRQYVQGCGV [I77M] | 59.9 °C | 1 kcal/mol/K | 98.5 kcal/mol | 108 kcal/mol |

Same assay, conditions: Homo sapiens; pH 2.7; Thermal; DSC; glycine 0.05 M; reversible: yes; structure 1LZ1; whole UniProt chain shown

| Variant | Tm | change of melting temperature, mutant - wild type (higher = more stable) | heat capacity change of unfolding | unfolding enthalpy (calorimetric) | unfolding enthalpy (van 't Hoff) |
| --- | --- | --- | --- | --- | --- |
| MKALIVLGLVLLSVTVQGKVFERCELARTLKRLGMDGYRGISLANWMCLAKWESGYNTRATNYNAGDRSTDYGIFQMNSRYWCNDGKTPGAVNACHLSCSALLQDNIADAVACAKRVVRDPQGIRAWVAWRNRCQNRDVRQYVQGCGV [I77M] | 60.7 °C and 64.9 °C | -4.2 °C | 1.27 kcal/mol/K | 106 kcal/mol | 115 kcal/mol |
| MKALIVLGLVLLSVTVQGKVFERCELARTLKRLGMDGYRGISLANWMCLAKWESGYNTRATNYNAGDRSTDYGFFQINSRYWCNDGKTPGAVNACHLSCSALLQDNIADAVACAKRVVRDPQGIRAWVAWRNRCQNRDVRQYVQGCGV [I74F] |  | -15 °C | 1.82 kcal/mol/K | 102 kcal/mol | 106 kcal/mol |
| MKALIVLGLVLLSVTVQGKVFERCELARTLKRLGMDGYRGISLANWMCLAKWESGYNTRATNYNAGDRSTDYGTFQINSRYWCNDGKTPGAVNACHLSCSALLQDNIADAVACAKRVVRDPQGIRAWVAWRNRCQNRDVRQYVQGCGV [I74T] |  | -12.5 °C | 1.08 kcal/mol/K | 102 kcal/mol | 108 kcal/mol |
| MKALIVLGLVLLSVTVQGKVFERCELARTLKRLGMDGYRGISLANWMCLAKWESGYNTRATNYNAGDRSTDYGVFQINSRYWCNDGKTPGAVNACHLSCSALLQDNIADAVACAKRVVRDPQGIRAWVAWRNRCQNRDVRQYVQGCGV [I74V] | 61.3 °C and 64.9 °C | -3.6 °C | 1.34 kcal/mol/K | 114 kcal/mol | 117 kcal/mol |
| MKALIVLGLVLLSVTVQGKVFERCELARTLKRLGMDGYRGISLANWMCLAKWESGYNTRATNYNAGDRSTDYGIFQANSRYWCNDGKTPGAVNACHLSCSALLQDNIADAVACAKRVVRDPQGIRAWVAWRNRCQNRDVRQYVQGCGV [I77A] | 59.7 °C | -5.2 °C | 1.46 kcal/mol/K | 115 kcal/mol | 121 kcal/mol |
| MKALIVLGLVLLSVTVQGKVFERCELARTLKRLGMDGYRGISLANWMCLAKWESGYNTRATNYNAGDRSTDYGIFQGNSRYWCNDGKTPGAVNACHLSCSALLQDNIADAVACAKRVVRDPQGIRAWVAWRNRCQNRDVRQYVQGCGV [I77G] | 52.2 °C | -12.7 °C | 1.24 kcal/mol/K | 106 kcal/mol | 109 kcal/mol |
| MKALIVLGLVLLSVTVQGKVFERCELARTLKRLGMDGYRGISLANWMCLAKWESGYNTRATNYNAGDRSTDYGIFQVNSRYWCNDGKTPGAVNACHLSCSALLQDNIADAVACAKRVVRDPQGIRAWVAWRNRCQNRDVRQYVQGCGV [I77V] | 61.5 °C and 64.9 °C | -3.4 °C | 1.2 kcal/mol/K | 110 kcal/mol | 117 kcal/mol |
| MKALIVLGLVLLSVTVQGKVFERCELARTLKRLGMDGYRGISLANWMCLAKWESGYNTRATNYNAGDRSTDYGIFQYNSRYWCNDGKTPGAVNACHLSCSALLQDNIADAVACAKRVVRDPQGIRAWVAWRNRCQNRDVRQYVQGCGV [I77Y] |  | -13.8 °C | 1.34 kcal/mol/K | 97.8 kcal/mol | 105 kcal/mol |
| MKALIVLGLVLLSVTVQGKVFERCELARTLKRLGMDGYRGISLANWMCLAKWESGYNTRATNYNAGDRSTDYGAFQINSRYWCNDGKTPGAVNACHLSCSALLQDNIADAVACAKRVVRDPQGIRAWVAWRNRCQNRDVRQYVQGCGV [I74A] | 64.9 °C |  |  |  |  |
| MKALIVLGLVLLSVTVQGKVFERCELARTLKRLGMDGYRGISLANWMCLAKWESGYNTRATNYNAGDRSTDYGGFQINSRYWCNDGKTPGAVNACHLSCSALLQDNIADAVACAKRVVRDPQGIRAWVAWRNRCQNRDVRQYVQGCGV [I74G] | 62.2 °C | -2.7 °C |  |  |  |

Same assay, conditions: Homo sapiens; pH 2.8; Thermal; DSC; glycine 0.05 M; reversible: yes; structure 1LZ1; whole UniProt chain shown

| Variant | Tm | heat capacity change of unfolding | unfolding enthalpy (calorimetric) | unfolding enthalpy (van 't Hoff) |
| --- | --- | --- | --- | --- |
| MKALIVLGLVLLSVTVQGKVFERCELARTLKRLGMDGYRGISLANWMCLAKWESGYNTRATNYNAGDRSTDYGIFQMNSRYWCNDGKTPGAVNACHLSCSALLQDNIADAVACAKRVVRDPQGIRAWVAWRNRCQNRDVRQYVQGCGV [I77M] | 62 °C | 1.2 kcal/mol/K | 103 kcal/mol | 110 kcal/mol |

Same assay, conditions: Homo sapiens; pH 2.95; Thermal; DSC; glycine 0.05 M; reversible: yes; structure 1LZ1; whole UniProt chain shown

| Variant | Tm | heat capacity change of unfolding | unfolding enthalpy (calorimetric) | unfolding enthalpy (van 't Hoff) |
| --- | --- | --- | --- | --- |
| MKALIVLGLVLLSVTVQGKVFERCELARTLKRLGMDGYRGISLANWMCLAKWESGYNTRATNYNAGDRSTDYGIFQMNSRYWCNDGKTPGAVNACHLSCSALLQDNIADAVACAKRVVRDPQGIRAWVAWRNRCQNRDVRQYVQGCGV [I77M] | 64.8 °C | 1.1 kcal/mol/K | 106 kcal/mol | 114 kcal/mol |

Same assay, conditions: Homo sapiens; pH 3.13; Thermal; DSC; glycine 0.05 M; reversible: yes; structure 1LZ1; whole UniProt chain shown

| Variant | Tm | heat capacity change of unfolding | unfolding enthalpy (calorimetric) | unfolding enthalpy (van 't Hoff) |
| --- | --- | --- | --- | --- |
| MKALIVLGLVLLSVTVQGKVFERCELARTLKRLGMDGYRGISLANWMCLAKWESGYNTRATNYNAGDRSTDYGIFQMNSRYWCNDGKTPGAVNACHLSCSALLQDNIADAVACAKRVVRDPQGIRAWVAWRNRCQNRDVRQYVQGCGV [I77M] | 66.5 °C | 1.15 kcal/mol/K | 107 kcal/mol | 117 kcal/mol |

Same assay, conditions: Homo sapiens; pH 2.7; 64.9 °C; Thermal; DSC; glycine 0.05 M; reversible: yes; structure 1LZ1; whole UniProt chain shown

| Variant | ddG of mutation (higher = less stable) |
| --- | --- |
| MKALIVLGLVLLSVTVQGKVFERCELARTLKRLGMDGYRGISLANWMCLAKWESGYNTRATNYNAGDRSTDYGFFQINSRYWCNDGKTPGAVNACHLSCSALLQDNIADAVACAKRVVRDPQGIRAWVAWRNRCQNRDVRQYVQGCGV [I74F] | 4.09 kcal/mol |
| MKALIVLGLVLLSVTVQGKVFERCELARTLKRLGMDGYRGISLANWMCLAKWESGYNTRATNYNAGDRSTDYGTFQINSRYWCNDGKTPGAVNACHLSCSALLQDNIADAVACAKRVVRDPQGIRAWVAWRNRCQNRDVRQYVQGCGV [I74T] | 3.63 kcal/mol |
| MKALIVLGLVLLSVTVQGKVFERCELARTLKRLGMDGYRGISLANWMCLAKWESGYNTRATNYNAGDRSTDYGVFQINSRYWCNDGKTPGAVNACHLSCSALLQDNIADAVACAKRVVRDPQGIRAWVAWRNRCQNRDVRQYVQGCGV [I74V] | 1.2 kcal/mol |
| MKALIVLGLVLLSVTVQGKVFERCELARTLKRLGMDGYRGISLANWMCLAKWESGYNTRATNYNAGDRSTDYGIFQANSRYWCNDGKTPGAVNACHLSCSALLQDNIADAVACAKRVVRDPQGIRAWVAWRNRCQNRDVRQYVQGCGV [I77A] | 1.72 kcal/mol |
| MKALIVLGLVLLSVTVQGKVFERCELARTLKRLGMDGYRGISLANWMCLAKWESGYNTRATNYNAGDRSTDYGIFQGNSRYWCNDGKTPGAVNACHLSCSALLQDNIADAVACAKRVVRDPQGIRAWVAWRNRCQNRDVRQYVQGCGV [I77G] | 3.82 kcal/mol |
| MKALIVLGLVLLSVTVQGKVFERCELARTLKRLGMDGYRGISLANWMCLAKWESGYNTRATNYNAGDRSTDYGIFQVNSRYWCNDGKTPGAVNACHLSCSALLQDNIADAVACAKRVVRDPQGIRAWVAWRNRCQNRDVRQYVQGCGV [I77V] | 1.1 kcal/mol |
| MKALIVLGLVLLSVTVQGKVFERCELARTLKRLGMDGYRGISLANWMCLAKWESGYNTRATNYNAGDRSTDYGIFQYNSRYWCNDGKTPGAVNACHLSCSALLQDNIADAVACAKRVVRDPQGIRAWVAWRNRCQNRDVRQYVQGCGV [I77Y] | 3.78 kcal/mol |

Same assay, conditions: Homo sapiens; pH 2.75; Thermal; DSC; glycine 0.05 M; reversible: yes; structure 1LZ1; whole UniProt chain shown

| Variant | Tm | heat capacity change of unfolding | unfolding enthalpy (calorimetric) | unfolding enthalpy (van 't Hoff) |
| --- | --- | --- | --- | --- |
| MKALIVLGLVLLSVTVQGKVFERCELARTLKRLGMDGYRGISLANWMCLAKWESGYNTRATNYNAGDRSTDYGFFQINSRYWCNDGKTPGAVNACHLSCSALLQDNIADAVACAKRVVRDPQGIRAWVAWRNRCQNRDVRQYVQGCGV [I74F] | 50.8 °C | 1.89 kcal/mol/K | 76 kcal/mol | 79.3 kcal/mol |

Same assay, conditions: Homo sapiens; pH 3.06; Thermal; DSC; glycine 0.05 M; reversible: yes; structure 1LZ1; whole UniProt chain shown

| Variant | Tm | heat capacity change of unfolding | unfolding enthalpy (calorimetric) | unfolding enthalpy (van 't Hoff) |
| --- | --- | --- | --- | --- |
| MKALIVLGLVLLSVTVQGKVFERCELARTLKRLGMDGYRGISLANWMCLAKWESGYNTRATNYNAGDRSTDYGFFQINSRYWCNDGKTPGAVNACHLSCSALLQDNIADAVACAKRVVRDPQGIRAWVAWRNRCQNRDVRQYVQGCGV [I74F] | 56.3 °C | 1.77 kcal/mol/K | 86 kcal/mol | 89.6 kcal/mol |

Same assay, conditions: Homo sapiens; pH 2.71; Thermal; DSC; glycine 0.05 M; reversible: yes; structure 1LZ1; whole UniProt chain shown

| Variant | Tm | heat capacity change of unfolding | unfolding enthalpy (calorimetric) | unfolding enthalpy (van 't Hoff) |
| --- | --- | --- | --- | --- |
| MKALIVLGLVLLSVTVQGKVFERCELARTLKRLGMDGYRGISLANWMCLAKWESGYNTRATNYNAGDRSTDYGIFQYNSRYWCNDGKTPGAVNACHLSCSALLQDNIADAVACAKRVVRDPQGIRAWVAWRNRCQNRDVRQYVQGCGV [I77Y] | 51.4 °C | 1.55 kcal/mol/K | 79.3 kcal/mol | 84.4 kcal/mol |

Same assay, conditions: Homo sapiens; pH 3.18; Thermal; DSC; glycine 0.05 M; reversible: yes; structure 1LZ1; whole UniProt chain shown

| Variant | Tm | heat capacity change of unfolding | unfolding enthalpy (calorimetric) | unfolding enthalpy (van 't Hoff) |
| --- | --- | --- | --- | --- |
| MKALIVLGLVLLSVTVQGKVFERCELARTLKRLGMDGYRGISLANWMCLAKWESGYNTRATNYNAGDRSTDYGIFQYNSRYWCNDGKTPGAVNACHLSCSALLQDNIADAVACAKRVVRDPQGIRAWVAWRNRCQNRDVRQYVQGCGV [I77Y] | 59.5 °C | 1.27 kcal/mol/K | 90.6 kcal/mol | 97 kcal/mol |
